Patent US20220010021A1 (Sanofi, published 2022)
Where a chain is given by its changes, count along the chain named.

B1: 16H7 light chain variant S94V (antibody, IgG4, V domains shown)
VH: not shown
VL: SYVLTQPPSVSVAPGQTARITCGGNNIGSESVHWYQQKPGQAPVLVVYDDSDRPSGIPERFSGSNSGNTATLTISRVEAGDEADYYCQVWDGNVDHVVFGGGTKLTVLG
notes: IgG4 backbone
B2: 16H7 light chain variant V32T (antibody, IgG4, V domains shown)
VH: not shown
VL: B1 VL with V32T, V94S
notes: IgG4 backbone
B3: 16H7 light chain variant V97T (antibody, IgG4, V domains shown)
VH: not shown
VL: B1 VL with V94S, V97T
notes: IgG4 backbone
B4: 16H7 light chain variant V32M (antibody, IgG4, V domains shown)
VH: not shown
VL: B1 VL with V32M, V94S
notes: IgG4 backbone
B5: 16H7 light chain variant V97N (antibody, IgG4, V domains shown)
VH: not shown
VL: B1 VL with V94S, V97N
notes: IgG4 backbone
B6: 16H7 light chain variant V32H (antibody, IgG4, V domains shown)
VH: not shown
VL: B1 VL with V32H, V94S
notes: IgG4 backbone
B7: 16H7 light chain variant V32K (antibody, IgG4, V domains shown)
VH: not shown
VL: B1 VL with V32K, V94S
notes: IgG4 backbone
B8: 16H7 light chain variant V97L (antibody, IgG4, V domains shown)
VH: not shown
VL: B1 VL with V94S, V97L
notes: IgG4 backbone
B9: 16H7 light chain variant V32N (antibody, IgG4, V domains shown)
VH: not shown
VL: B1 VL with V32N, V94S
notes: IgG4 backbone
B10: 16H7 light chain variant V98R (antibody, IgG4, V domains shown)
VH: not shown
VL: B1 VL with V94S, V98R
notes: IgG4 backbone
B11: 16H7 light chain variant V32L (antibody, IgG4, V domains shown)
VH: not shown
VL: B1 VL with V32L, V94S
notes: IgG4 backbone
B12: 16H7 light chain variant V98N (antibody, IgG4, V domains shown)
VH: not shown
VL: B1 VL with V94S, V98N
notes: IgG4 backbone
B13: 16H7 light chain variant V98F (antibody, IgG4, V domains shown)
VH: not shown
VL: B1 VL with V94S, V98F
notes: IgG4 backbone
B14: 16H7 light chain variant V97I (antibody, IgG4, V domains shown)
VH: not shown
VL: B1 VL with V94S, V97I
notes: IgG4 backbone
B15: 16H7 light chain variant V32Y (antibody, IgG4, V domains shown)
VH: not shown
VL: B1 VL with V32Y, V94S
notes: IgG4 backbone
B16: 16H7 light chain variant V32I (antibody, IgG4, V domains shown)
VH: not shown
VL: B1 VL with V32I, V94S
notes: IgG4 backbone
B17: 16H7 light chain variant V98S (antibody, IgG4, V domains shown)
VH: not shown
VL: B1 VL with V94S, V98S
notes: IgG4 backbone
B18: 16H7 light chain variant V32D (antibody, IgG4, V domains shown)
VH: not shown
VL: B1 VL with V32D, V94S
notes: IgG4 backbone
B19: 16H7 light chain variant S94Y (antibody, IgG4, V domains shown)
VH: not shown
VL: B1 VL with V94Y
notes: IgG4 backbone
B20: 16H7 light chain variant V98P (antibody, IgG4, V domains shown)
VH: not shown
VL: B1 VL with V94S, V98P
notes: IgG4 backbone
B21: 16H7 light chain variant V98I (antibody, IgG4, V domains shown)
VH: not shown
VL: B1 VL with V94S, V98I
notes: IgG4 backbone
B22: 16H7 light chain variant V32S (antibody, IgG4, V domains shown)
VH: not shown
VL: B1 VL with V32S, V94S
notes: IgG4 backbone
B23: 16H7 light chain variant V98Q (antibody, IgG4, V domains shown)
VH: not shown
VL: B1 VL with V94S, V98Q
notes: IgG4 backbone
B24: 16H7 light chain variant V32W (antibody, IgG4, V domains shown)
VH: not shown
VL: B1 VL with V32W, V94S
notes: IgG4 backbone
B25: 16H7 light chain variant V32F (antibody, IgG4, V domains shown)
VH: not shown
VL: B1 VL with V32F, V94S
notes: IgG4 backbone
B26: 16H7 light chain variant V97F (antibody, IgG4, V domains shown)
VH: not shown
VL: B1 VL with V94S, V97F
notes: IgG4 backbone
B27: 16H7 light chain variant V97C (antibody, IgG4, V domains shown)
VH: not shown
VL: B1 VL with V94S, V97C
notes: IgG4 backbone
B28: 16H7 light chain variant V98M (antibody, IgG4, V domains shown)
VH: not shown
VL: B1 VL with V94S, V98M
notes: IgG4 backbone
B29: 16H7 light chain variant V32A (antibody, IgG4, V domains shown)
VH: not shown
VL: B1 VL with V32A, V94S
notes: IgG4 backbone
B30: 16H7 light chain variant V98C (antibody, IgG4, V domains shown)
VH: not shown
VL: B1 VL with V94S, V98C
notes: IgG4 backbone
B31: 16H7 light chain variant V32C (antibody, IgG4, V domains shown)
VH: not shown
VL: B1 VL with V32C, V94S
notes: IgG4 backbone
B32: 16H7 light chain variant V32G (antibody, IgG4, V domains shown)
VH: not shown
VL: B1 VL with V32G, V94S
notes: IgG4 backbone
B33: 16H7 light chain variant V97M (antibody, IgG4, V domains shown)
VH: not shown
VL: B1 VL with V94S, V97M
notes: IgG4 backbone
B34: 16H7 light chain variant V32Q (antibody, IgG4, V domains shown)
VH: not shown
VL: B1 VL with V32Q, V94S
notes: IgG4 backbone
B35: 16H7 light chain variant S94W (antibody, IgG4, V domains shown)
VH: not shown
VL: B1 VL with V94W
notes: IgG4 backbone

Experiments:
human beta-Klotho (KLB) = target: T1, human beta-Klotho (KLB) (human, UniProt Q86Z14 53-997); experiment: BLI off-rate screening (Octet), crude supernatant;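 note: supernatants tested at 25 µg/mL, dissociation from biosensors recorded in D-PBS with 0.1% BSA over 1800 s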
T1 construct: Bought protein; also called human KLB; β-Klotho
T1 sequence (looked up): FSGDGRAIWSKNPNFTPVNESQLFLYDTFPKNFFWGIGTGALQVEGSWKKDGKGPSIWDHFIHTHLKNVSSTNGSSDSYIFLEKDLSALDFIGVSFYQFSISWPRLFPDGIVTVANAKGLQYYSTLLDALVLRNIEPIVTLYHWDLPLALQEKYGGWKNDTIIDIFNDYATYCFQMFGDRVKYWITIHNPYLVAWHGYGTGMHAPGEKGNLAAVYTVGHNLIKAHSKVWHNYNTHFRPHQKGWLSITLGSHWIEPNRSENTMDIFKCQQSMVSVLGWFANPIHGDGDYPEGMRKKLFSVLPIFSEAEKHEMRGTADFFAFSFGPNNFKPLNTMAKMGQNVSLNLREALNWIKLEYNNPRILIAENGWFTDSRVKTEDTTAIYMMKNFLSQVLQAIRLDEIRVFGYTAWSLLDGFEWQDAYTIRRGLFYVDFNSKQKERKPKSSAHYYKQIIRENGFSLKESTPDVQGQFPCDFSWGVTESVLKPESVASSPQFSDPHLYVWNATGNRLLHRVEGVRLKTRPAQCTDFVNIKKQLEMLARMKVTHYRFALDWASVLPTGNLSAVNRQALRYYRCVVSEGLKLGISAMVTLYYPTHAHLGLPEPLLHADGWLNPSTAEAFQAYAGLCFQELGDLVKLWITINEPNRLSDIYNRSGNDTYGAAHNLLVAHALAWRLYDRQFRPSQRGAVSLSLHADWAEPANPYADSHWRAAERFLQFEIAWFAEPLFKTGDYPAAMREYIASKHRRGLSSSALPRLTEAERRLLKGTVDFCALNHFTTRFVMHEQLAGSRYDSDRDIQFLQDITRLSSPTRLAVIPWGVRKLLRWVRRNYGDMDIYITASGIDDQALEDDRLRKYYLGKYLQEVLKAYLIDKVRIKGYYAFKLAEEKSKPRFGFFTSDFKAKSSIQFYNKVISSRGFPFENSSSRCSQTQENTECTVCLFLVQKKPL

[1] = target: cell surface receptor composed of FGFR1c and co-receptor beta-Klotho (KLB) (human, UniProt P11362 22-822; Q86Z14 1-1044); experiment: cell-based or functional assay; for Mean E max, Luciferase reporter gene assay: reference of the scale not given here
cell surface receptor composed of FGFR1c and co-receptor beta-Klotho (KLB), sequence (P11362 22-822, chain 1 of 2): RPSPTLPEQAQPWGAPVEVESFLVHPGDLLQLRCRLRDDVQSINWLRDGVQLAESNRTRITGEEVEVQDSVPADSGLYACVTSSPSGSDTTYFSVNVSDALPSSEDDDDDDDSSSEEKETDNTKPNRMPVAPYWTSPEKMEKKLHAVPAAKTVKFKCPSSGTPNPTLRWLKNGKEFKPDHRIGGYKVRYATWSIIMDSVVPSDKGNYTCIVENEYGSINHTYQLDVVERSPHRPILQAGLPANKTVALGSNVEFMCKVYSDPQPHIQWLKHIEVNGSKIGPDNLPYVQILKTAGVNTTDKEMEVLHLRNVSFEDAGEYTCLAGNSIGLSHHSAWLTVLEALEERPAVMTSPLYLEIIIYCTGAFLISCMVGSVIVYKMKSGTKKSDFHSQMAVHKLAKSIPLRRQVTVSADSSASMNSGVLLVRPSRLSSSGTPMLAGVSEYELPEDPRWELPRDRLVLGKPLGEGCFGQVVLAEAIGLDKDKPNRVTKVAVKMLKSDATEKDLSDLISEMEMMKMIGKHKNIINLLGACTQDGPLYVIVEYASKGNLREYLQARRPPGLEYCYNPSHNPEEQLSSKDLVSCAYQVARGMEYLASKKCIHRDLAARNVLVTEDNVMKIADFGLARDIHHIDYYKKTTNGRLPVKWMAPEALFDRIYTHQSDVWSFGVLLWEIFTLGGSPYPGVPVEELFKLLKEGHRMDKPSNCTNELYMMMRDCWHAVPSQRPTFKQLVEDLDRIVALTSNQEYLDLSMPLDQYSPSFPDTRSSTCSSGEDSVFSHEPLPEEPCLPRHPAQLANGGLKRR
cell surface receptor composed of FGFR1c and co-receptor beta-Klotho (KLB), sequence (Q86Z14 whole entry, chain 2 of 2): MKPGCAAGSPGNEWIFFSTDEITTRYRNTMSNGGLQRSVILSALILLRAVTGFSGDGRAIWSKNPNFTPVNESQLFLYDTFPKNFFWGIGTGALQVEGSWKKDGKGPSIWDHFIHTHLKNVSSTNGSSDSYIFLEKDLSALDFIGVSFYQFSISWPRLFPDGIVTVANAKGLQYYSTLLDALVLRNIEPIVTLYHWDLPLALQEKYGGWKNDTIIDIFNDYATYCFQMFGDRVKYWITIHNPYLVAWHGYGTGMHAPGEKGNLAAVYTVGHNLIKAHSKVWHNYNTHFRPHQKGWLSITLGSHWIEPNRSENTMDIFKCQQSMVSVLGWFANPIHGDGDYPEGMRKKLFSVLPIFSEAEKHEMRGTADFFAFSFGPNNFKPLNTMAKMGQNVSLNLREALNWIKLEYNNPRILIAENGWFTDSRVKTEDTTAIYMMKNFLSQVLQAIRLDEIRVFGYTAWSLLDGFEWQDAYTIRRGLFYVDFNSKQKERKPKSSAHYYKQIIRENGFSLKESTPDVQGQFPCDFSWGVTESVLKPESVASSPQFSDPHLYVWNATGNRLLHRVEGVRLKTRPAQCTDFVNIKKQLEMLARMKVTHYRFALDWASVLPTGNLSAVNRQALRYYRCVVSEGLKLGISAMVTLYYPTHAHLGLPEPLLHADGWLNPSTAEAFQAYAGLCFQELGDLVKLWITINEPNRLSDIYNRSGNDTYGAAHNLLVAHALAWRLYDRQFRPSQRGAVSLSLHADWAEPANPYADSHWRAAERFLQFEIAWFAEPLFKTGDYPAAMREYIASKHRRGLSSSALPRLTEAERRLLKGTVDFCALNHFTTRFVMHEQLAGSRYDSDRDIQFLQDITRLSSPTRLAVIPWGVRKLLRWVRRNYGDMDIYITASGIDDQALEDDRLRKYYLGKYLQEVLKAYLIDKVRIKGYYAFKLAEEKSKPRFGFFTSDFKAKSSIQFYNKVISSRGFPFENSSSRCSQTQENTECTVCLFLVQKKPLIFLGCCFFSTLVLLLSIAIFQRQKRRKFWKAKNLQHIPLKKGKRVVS

| Binder | koff (human beta-Klotho (KLB)) | Mean E max, Luciferase reporter gene assay [1] | Mean EC50, Luciferase reporter gene assay [1] |
| --- | --- | --- | --- |
| B1 | 2.8e-05 s⁻¹ | 108% | 0.119 nM |
| B2 | 7e-05 s⁻¹ | 107% | 0.107 nM |
| B3 | 0.0001 s⁻¹ | 99% | 0.142 nM |
| B4 | 9.5e-05 s⁻¹ | 103% | 0.135 nM |
| B5 | 0.00033 s⁻¹ | 95% | 0.206 nM |
| B6 | 7.3e-05 s⁻¹ | 100% | 0.147 nM |
| B7 | 2.6e-05 s⁻¹ | 101% | 0.158 nM |
| B8 | 5.9e-05 s⁻¹ | 110% | 0.129 nM |
| B9 | 4.4e-05 s⁻¹ | 104% | 0.123 nM |
| B10 | 0.00011 s⁻¹ | 99% | 0.099 nM |
| B11 | 4.9e-05 s⁻¹ | 104% | 0.126 nM |
| B12 | 2.1e-05 s⁻¹ | 112% | 0.111 nM |
| B13 | 1.6e-05 s⁻¹ | 102% | 0.161 nM |
| B14 | 1.7e-05 s⁻¹ | 110% | 0.12 nM |
| B15 | 1.9e-05 s⁻¹ | 106% | 0.103 nM |
| B16 | 2e-05 s⁻¹ | 113% | 0.133 nM |
| B17 | 3.9e-05 s⁻¹ | 107% | 0.094 nM |
| B18 | 0.00025 s⁻¹ | 92% | 0.141 nM |

| Binder | koff (human beta-Klotho (KLB)) | Mean E max, Luciferase reporter gene assay [1] | Mean EC50, Luciferase reporter gene assay [1] |
| --- | --- | --- | --- |
| B19 | 6.2e-05 s⁻¹ | 100% | 0.098 nM |
| B20 | 7.3e-05 s⁻¹ | 89% | 0.131 nM |
| B21 | 3.3e-05 s⁻¹ | 116% | 0.105 nM |
| B22 | 5.1e-05 s⁻¹ | 102% | 0.124 nM |
| B23 | 3.7e-05 s⁻¹ | 111% | 0.121 nM |
| B24 | 0.00023 s⁻¹ | 102% | 0.145 nM |
| B25 | 4.1e-05 s⁻¹ | 100% | 0.102 nM |
| B26 | 2.1e-05 s⁻¹ | 45% | 3.02 nM |
| B27 | 0.00023 s⁻¹ | 104% | 0.19 nM |
| B28 | 7.2e-05 s⁻¹ | 108% | 0.114 nM |
| B29 | 4.7e-05 s⁻¹ | 108% | 0.144 nM |
| B30 | 6.4e-05 s⁻¹ | 100% | 0.105 nM |
| B31 | 5.1e-06 s⁻¹ | 99% | 0.108 nM |
| B32 | 6.5e-05 s⁻¹ | 103% | 0.24 nM |
| B33 | 3.3e-05 s⁻¹ | 103% | 0.214 nM |
| B34 | 0.00025 s⁻¹ | 91% | 0.166 nM |
| B35 | 4.3e-05 s⁻¹ | 103% | 0.159 nM |
